Measured values reported in patent publication US20240141072A1 (published 2024).

T1: biotinylated human DLL3 protein expressed as a human IgG1 fusion protein (human, UniProt Q9NYJ7 27-492, limits assumed, biotinylated)
T1 sequence: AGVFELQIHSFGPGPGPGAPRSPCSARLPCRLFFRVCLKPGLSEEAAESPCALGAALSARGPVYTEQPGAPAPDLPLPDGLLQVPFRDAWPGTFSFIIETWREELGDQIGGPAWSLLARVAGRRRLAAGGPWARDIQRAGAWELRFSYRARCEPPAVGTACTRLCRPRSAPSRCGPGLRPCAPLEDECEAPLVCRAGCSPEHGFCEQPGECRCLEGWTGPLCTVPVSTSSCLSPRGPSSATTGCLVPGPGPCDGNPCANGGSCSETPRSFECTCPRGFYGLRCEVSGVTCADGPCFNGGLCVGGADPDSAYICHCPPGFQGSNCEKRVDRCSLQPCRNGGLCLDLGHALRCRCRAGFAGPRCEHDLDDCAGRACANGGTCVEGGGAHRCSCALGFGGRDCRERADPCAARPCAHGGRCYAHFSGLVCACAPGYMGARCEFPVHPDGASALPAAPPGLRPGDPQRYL


Biological target: T1, biotinylated human DLL3 protein …
Assay: Octet BLI, single 50 nM
Procedure: Using the conditioned medium with known concentrations of the anti-DLL3 trispecific proteins, the binding affinities of the anti-DLL3 trispecific proteins toward human DLL3 protein were measured using a method where biotinylated version of human DLL3 protein were expressed as a human IgG1 fusion protein, and the binding affinity measurement was carried out in an Octet instrument with streptavidin tips.

Kd [nM] | Binder
20 | 2F08 anti-DLL3 trispecific protein (other, not shown: linker 1808, anti-albumin sdAb, linker 1808, anti-CD3 fragment, His6 1819) EVQLVESGGGLVQPGGSLTLSCVASGSKSSINAMGWYRRAPGKQRELPAGISSNGTKVYADSAKVRFTISRDNAKNSVYLQMNSLRAEDTAVYYCYYFRTVLGTSMRYWGQGTLVTVSS
6.5 | 2F09 anti-DLL3 trispecific protein (other, not shown: linker 1808, anti-albumin sdAb, linker 1808, anti-CD3 fragment, His6 1819) EVQLVESGGGLVQPGGSLTLSCVASGSTSSINAMAWYRRAPGKQRELVAGISSDGSKLYADSVKGRFTISRDNAKNSVYLQMNSLRAEDTAVYYCYYFRTVSGSSMRYWGQGTLVTVSS
11 | 2G04 anti-DLL3 trispecific protein (other, not shown: linker 1808, anti-albumin sdAb, linker 1808, anti-CD3 fragment, His6 1819) EVQLVESGGGLVQPGGSLTLSCVASGSTSSINAMGWYRRAPGKQRELVAGISSDGSLVYADSVKGRFTISRDNAKNSVYLQMNSLRAEDTAVYYCYYFRILSGSSMRYWGQGTLVTVSS
5.6 | 2G03 anti-DLL3 trispecific protein (other, not shown: linker 1808, anti-albumin sdAb, linker 1808, anti-CD3 fragment, His6 1819) EVQLVESGGGLVQPGGSLTLSCVASGSTSSINAMGWYRRAPGKQRELVAGISSDGSLVYADSVKGRFTISRDNAKNSVYLQMNSLRAEDTAVYYCYYFRTVSGSSMRAWGQGTLVTVSS
18 | 2H08 anti-DLL3 trispecific protein (other, not shown: linker 1808, anti-albumin sdAb, linker 1808, anti-CD3 fragment, His6 1819) EVQLVESGGGLVQPGGSLTLSCVASGSTSSINAMGWYRRAPGKQRELAAGISKDGSKVYADSAKGRFTISRDNAKNSVYLQMNSLRAEDTAVYYCYYFRTVSGSSSRYWGQGTLVTVSS
7.9 | 2H06 anti-DLL3 trispecific protein (other, not shown: linker 1808, anti-albumin sdAb, linker 1808, anti-CD3 fragment, His6 1819) EVQLVESGGGLVQPGGSLTLSCVASGSTSTINAMGWYRRAPGKQRELVAGISSDGSKVYADSVKGRFTISRDNAKNSVYLQMNSLRAEDTAVYYCYYFRTASGSSMRYWGQGTLVTVSS
5 | 2H011 anti-DLL3 trispecific protein (other, not shown: linker 1808, anti-albumin sdAb, linker 1808, anti-CD3 fragment, His6 1819) EVQLVESGGGLVQPGGSLTLSCVASGSTSRINAMGWYRRAPGKQRELVAGISSDGSKVYADSVKGRFTISRDNAKNSVYLQMNSLRAEDTAVYYCYYFRRVSGSSMRYWGQGTLVTVSS
6.1 | 2H07 anti-DLL3 trispecific protein (other, not shown: linker 1808, anti-albumin sdAb, linker 1808, anti-CD3 fragment, His6 1819) EVQLVESGGGLVQPGGSLTLSCVASGSTSSINAVGWYRRAPGKQRELVAGISSDGSTVYADSVKGRFTISRDNAKNSVYLQMNSLRAEDTAVYYCYYFRTVSGHSMRYWGQGTLVTVSS
8 | 2G09 anti-DLL3 trispecific protein (other, not shown: linker 1808, anti-albumin sdAb, linker 1808, anti-CD3 fragment, His6 1819) EVQLVESGGGLVQPGGSLTLSCVASGSTSSINAMGWYRRAPGKQRELVAGVSSDGSKVYADSVKGRFTISRDNAKNSVYLQMNSLRAEDTAVYYCYYFRTVSGSSARYWGQGTLVTVSS
6.4 | 2H010 anti-DLL3 trispecific protein (other, not shown: linker 1808, anti-albumin sdAb, linker 1808, anti-CD3 fragment, His6 1819) EVQLVESGGGLVQPGGSLTLSCVASGSTSSINAMGWYRRAPGKQRELAAGISSDGSKLYADSVKGRFTISRDNAKNSVYLQMNSLRAEDTAVYYCYYFRTVSGSSMRYWGQGTLVTVSS
13 | 2G011 anti-DLL3 trispecific protein (other, not shown: linker 1808, anti-albumin sdAb, linker 1808, anti-CD3 fragment, His6 1819) EVQLVESGGGLVQPGGSLTLSCVASGSTSSINAMGWYRRAPGKQRELPAGISRDGSKVYADSVKGRFTISRDNAKNSVYLQMNSLRAEDTAVYYCYYFRYVSGSSMRYWGQGTLVTVSS
5.3 | 2H03 anti-DLL3 trispecific protein (other, not shown: linker 1808, anti-albumin sdAb, linker 1808, anti-CD3 fragment, His6 1819) EVQLVESGGGLVQPGGSLTLSCVASGSTSSINAMAWYRRAPGKQRELVAGISSDGSKVYADSVKGRFTISRDNAKNSVYLQMNSLRAEDTAVYYCYYFRQVSGSSMRYWGQGTLVTVSS
6.3 | 2H04 anti-DLL3 trispecific protein (other, not shown: linker 1808, anti-albumin sdAb, linker 1808, anti-CD3 fragment, His6 1819) EVQLVESGGGLVQPGGSLTLSCVASGSTSSINAMGWYRRAPGKQRELVAGISSDTSKVYADSVKGRFTISRDNAKNSVYLQMNSLRAEDTAVYYCYYFRTVSGSYMRYWGQGTLVTVSS
6.5 | 2G07 anti-DLL3 trispecific protein (other, not shown: linker 1808, anti-albumin sdAb, linker 1808, anti-CD3 fragment, His6 1819) EVQLVESGGGLVQPGGSLTLSCVASGSTSSINAMAWYRRAPGKQRELVAGISSDGSKVYADSVKGRFTISRDNAKNSVYLQMNSLRAEDTAVYYCYYFRTVQGSSMRYWGQGTLVTVSS
4.1 | 2G08 anti-DLL3 trispecific protein (other, not shown: linker 1808, anti-albumin sdAb, linker 1808, anti-CD3 fragment, His6 1819) EVQLVESGGGLVQPGGSLTLSCVASGSTSYINAMGWYRRAPGKQRELVAGISSDGSKVYADSVKGRFTISRDNAKNSVYLQMNSLRAEDTAVYYCYYFRTVSGQSMGYWGQGTLVTVSS
13 | 3F03 anti-DLL3 trispecific protein (other, not shown: linker 1808, anti-albumin sdAb, linker 1808, anti-CD3 fragment, His6 1819) EVQLVESGGGLVQPGGSLTLSCAASGSSVSFLSMAWYRQAPGKKRELVAGISADGSTDYIDSVKGRFTISRDNAKNSVYLQMNSLRAEDTAVYYCYAYRWRTRYTYWGQGTLVTVSS

Kd [nM] | Binder
12 | 3A08 anti-DLL3 trispecific protein (other, not shown: linker 1808, anti-albumin sdAb, linker 1808, anti-CD3 fragment, His6 1819) EVQLVESGGGLVQPGGSLTLSCAASGSSVGFLSMAWYRQAPGKKRELVAGISADGSTDYIRSVKGRFTISRDNAKNSVYLQMNSLRAEDTAVYYCYAYRWRTRYTYWGQGTLVTVSS
15 | 3B06 anti-DLL3 trispecific protein (other, not shown: linker 1808, anti-albumin sdAb, linker 1808, anti-CD3 fragment, His6 1819) EVQLVESGGGLVQPGGSLTLSCAASGKSVSFLSMAWYRQAPGKKRELVAGISKDGSTDYIDSVKGRFTISRDNAKNSVYLQMNSLRAEDTAVYYCYAYRWTTRYTYWGQGTLVTVSS
12 | 3A03 anti-DLL3 trispecific protein (other, not shown: linker 1808, anti-albumin sdAb, linker 1808, anti-CD3 fragment, His6 1819) EVQLVESGGGLVQPGGSLTLSCAASGSRVSFLSMAWYRQAPGKKRELVAGISRDGSTDYIDSVKGRFTISRDNAKNSVYLQMNSLRAEDTAVYYCYAYRWTTRRTYWGQGTLVTVSS
20 | 3B09 anti-DLL3 trispecific protein (other, not shown: linker 1808, anti-albumin sdAb, linker 1808, anti-CD3 fragment, His6 1819) EVQLVESGGGLVQPGGSLTLSCAASGSHVSFLSMAWYRQAPGKKRELVAGISANGSTDYIDSVKGRFTISRDNAKNSVYLQMNSLRAEDTAVYYCYAYRWTTRYAYWGQGTLVTVSS
7.3 | 3B07 anti-DLL3 trispecific protein (other, not shown: linker 1808, anti-albumin sdAb, linker 1808, anti-CD3 fragment, His6 1819) EVQLVESGGGLVQPGGSLTLSCAASGSRVSFLSMAWYRQAPGKKRELVAGISADGSTTYIDSVKGRFTISRDNAKNSVYLQMNSLRAEDTAVYYCYAYRWTTRYTYWGQGTLVTVSS
9.2 | 3A04 anti-DLL3 trispecific protein (other, not shown: linker 1808, anti-albumin sdAb, linker 1808, anti-CD3 fragment, His6 1819) EVQLVESGGGLVQPGGSLTLSCAASGSQVSFLSMAWYRQAPGKKRELVAGISRDGSTDYIDSVKGRFTISRDNAKNSVYLQMNSLRAEDTAVYYCYAYRWTTRYIYWGQGTLVTVSS
7.2 | 3B05 anti-DLL3 trispecific protein (other, not shown: linker 1808, anti-albumin sdAb, linker 1808, anti-CD3 fragment, His6 1819) EVQLVESGGGLVQPGGSLTLSCVASGSSVKFLSMAWYRQAPGKKRELVAGISADGSTTYIDSVKGRFTISRDNAKNSVYLQMNSLRAEDTAVYYCYAYRWTTRRTYWGQGTLVTVSS
15 | 3A05 anti-DLL3 trispecific protein (other, not shown: linker 1808, anti-albumin sdAb, linker 1808, anti-CD3 fragment, His6 1819) EVQLVESGGGLVQPGGSLTLSCAASGSSVSFLSMAWYRQAPGKKRELVAGISEAGSTDYIDSVKGRFTISRDNAKNSVYLQMNSLRAEDTAVYYCYAYRWRTRYTYWGQGTLVTVSS
16 | 3A06 anti-DLL3 trispecific protein (other, not shown: linker 1808, anti-albumin sdAb, linker 1808, anti-CD3 fragment, His6 1819) EVQLVESGGGLVQPGGSLTLRCAASGSKVSFLSMAWYRQAPGKKRELVAGISADGSTDYVDSVKGRFTISRDNAKNSVYLQMNSLRAEDTAVYYCYAYRWTRRYTYWGQGTLVTVSS
12 | 3B02 anti-DLL3 trispecific protein (other, not shown: linker 1808, anti-albumin sdAb, linker 1808, anti-CD3 fragment, His6 1819) EVQLVESGGGLVQPGGSLTLSCAASGSSVQFLSMAWYRQAPGKKRELVAGISADGSTDYINSVKGRFTISRDNAKNSVYLQMNSLRAEDTAVYYCYAYRWRTRYTYWGQGTLVTVSS
12 | 3B010 anti-DLL3 trispecific protein (other, not shown: linker 1808, anti-albumin sdAb, linker 1808, anti-CD3 fragment, His6 1819) EVQLVESGGGLVQPGGSLTLSCAASGSSVSFLSMAWYRQAPGKKRELVAGISRDGSTDYIDSVKGRFTISRDNAKNSVYLQMNSLRAEDTAVYYCYAYRWVTRYTYWGQGTLVTVSS
10 | 3B01 anti-DLL3 trispecific protein (other, not shown: linker 1808, anti-albumin sdAb, linker 1808, anti-CD3 fragment, His6 1819) EVQLVESGGGLVQPGGSLTLSCAASGSSVSFLSMAWYRQAPGKKRELVAGISGDGSTDYIDSVKGRFTISRDNAKNSVYLQMNSLRAEDTAVYYCYAYRWTTRYTYWGQGTLVTVSS
12 | 3A010 anti-DLL3 trispecific protein (other, not shown: linker 1808, anti-albumin sdAb, linker 1808, anti-CD3 fragment, His6 1819) EVQLVESGGGLVQPGGSLTLSCAASGSRVSFLSMAWYRQAPGKKRELVAGISADGSTLYIDSVKGRFTISRDNAKNSVYLQMNSLRAEDTAVYYCYAYRWTTRRTYWGQGTLVTVSS
6.3 | 3A09 anti-DLL3 trispecific protein (other, not shown: linker 1808, anti-albumin sdAb, linker 1808, anti-CD3 fragment, His6 1819) EVQLVESGGGLVQPGGSLTLSCAASGSSVSFLSMAWYRQAPGKKRELVAGISADGSVDYIDSVKGRFTISRDNAKNSVYLQMNSLRAEDTAVYYCYAYRWTTRYIYWGQGTLVTVSS
16 | 3A01 anti-DLL3 trispecific protein (other, not shown: linker 1808, anti-albumin sdAb, linker 1808, anti-CD3 fragment, His6 1819) EVQLVESGGGLVQPGGSLTLSCAASGSSVKFLSMAWYRQAPGKKRELVAGISADGSTDYIDSVKGRFTISRDNAKNSVYLQMNSLRAEDTAVYYCYAYRWTRRYTYWGQGTLVTVSS
24 | 3B04 anti-DLL3 trispecific protein (other, not shown: linker 1808, anti-albumin sdAb, linker 1808, anti-CD3 fragment, His6 1819) EVQLVESGGGLVQPGGSLTLSCAASGSNVSFLSMAWYRQAPGKKRELVAGISARGSTDYIDSVKGRFTISRDNAKNSVYLQMNSLRAEDTAVYYCYAYHWTTRYTYWGQGTLVTVSS
